Several values for one entry are separate records, joined by “and”; a condition that tells them apart may be missing. Identical values can stand only once. Bridge positions count the residues as written; N and C are the ends. Square brackets hold non-standard residues; d marks the D form. * marks the point of attachment. Fmoc = O=C(OCC1c2ccccc2-c2ccccc21)*; hArg = N=C(N)NCCCC[C@H](N)C(=O)O; Pentanoyl = CCCCC(=O)*
B1: Compound 90 (peptide)
peptide: Ac-WCLWNLKRIGSQCWF-OH
modifications: disulfide 2-13
SMILES: CC[C@H](C)[C@@H]1NC(=O)[C@H](CCCNC(=N)N)NC(=O)[C@H](CCCCN)NC(=O)[C@H](CC(C)C)NC(=O)[C@H](CC(N)=O)NC(=O)[C@H](Cc2c[nH]c3ccccc23)NC(=O)[C@H](CC(C)C)NC(=O)[C@@H](NC(=O)[C@H](Cc2c[nH]c3ccccc23)NC(C)=O)CSSC[C@@H](C(=O)N[C@@H](Cc2c[nH]c3ccccc23)C(=O)N[C@@H](Cc2ccccc2)C(=O)O)NC(=O)[C@H](CCC(N)=O)NC(=O)[C@H](CO)NC(=O)CNC1=O
B2: Compound 66 (peptide)
peptide: H-WCLWNLKRIGSQCWF-OH
modifications: disulfide 2-13
SMILES: CC[C@H](C)[C@@H]1NC(=O)[C@H](CCCNC(=N)N)NC(=O)[C@H](CCCCN)NC(=O)[C@H](CC(C)C)NC(=O)[C@H](CC(N)=O)NC(=O)[C@H](Cc2c[nH]c3ccccc23)NC(=O)[C@H](CC(C)C)NC(=O)[C@@H](NC(=O)[C@@H](N)Cc2c[nH]c3ccccc23)CSSC[C@@H](C(=O)N[C@@H](Cc2c[nH]c3ccccc23)C(=O)N[C@@H](Cc2ccccc2)C(=O)O)NC(=O)[C@H](CCC(N)=O)NC(=O)[C@H](CO)NC(=O)CNC1=O
B3: Compound 118 (peptide)
peptide: Pentanoyl-WNLV[hArg]IGLTR-NH2
SMILES: CCCCC(=O)N[C@@H](Cc1c[nH]c2ccccc12)C(=O)N[C@@H](CC(N)=O)C(=O)N[C@@H](CC(C)C)C(=O)N[C@H](C(=O)N[C@@H](CCCCNC(=N)N)C(=O)N[C@H](C(=O)NCC(=O)N[C@@H](CC(C)C)C(=O)N[C@H](C(=O)N[C@@H](CCCNC(=N)N)C(N)=O)[C@@H](C)O)[C@@H](C)CC)C(C)C
notes: also called n-BuC(O)-WNLV(homoR)IGLTR-NH2
B4: Compound 111 (peptide)
peptide: Pentanoyl-WNLVRIGLLR-NH2
SMILES: CCCCC(=O)N[C@@H](Cc1c[nH]c2ccccc12)C(=O)N[C@@H](CC(N)=O)C(=O)N[C@@H](CC(C)C)C(=O)N[C@H](C(=O)N[C@@H](CCCNC(=N)N)C(=O)N[C@H](C(=O)NCC(=O)N[C@@H](CC(C)C)C(=O)N[C@@H](CC(C)C)C(=O)N[C@@H](CCCNC(=N)N)C(N)=O)[C@@H](C)CC)C(C)C
B5: Compound 88 (peptide)
peptide: Ac-FCLWNLARIGSQCWF-NH2
modifications: disulfide 2-13
SMILES: CC[C@H](C)[C@@H]1NC(=O)[C@H](CCCNC(=N)N)NC(=O)[C@H](C)NC(=O)[C@H](CC(C)C)NC(=O)[C@H](CC(N)=O)NC(=O)[C@H](Cc2c[nH]c3ccccc23)NC(=O)[C@H](CC(C)C)NC(=O)[C@@H](NC(=O)[C@H](Cc2ccccc2)NC(C)=O)CSSC[C@@H](C(=O)N[C@@H](Cc2c[nH]c3ccccc23)C(=O)N[C@@H](Cc2ccccc2)C(N)=O)NC(=O)[C@H](CCC(N)=O)NC(=O)[C@H](CO)NC(=O)CNC1=O
B6: Compound 112 (peptide)
peptide: Pentanoyl-WNLVRIGLTR-NH2
SMILES: CCCCC(=O)N[C@@H](Cc1c[nH]c2ccccc12)C(=O)N[C@@H](CC(N)=O)C(=O)N[C@@H](CC(C)C)C(=O)N[C@H](C(=O)N[C@@H](CCCNC(=N)N)C(=O)N[C@H](C(=O)NCC(=O)N[C@@H](CC(C)C)C(=O)N[C@H](C(=O)N[C@@H](CCCNC(=N)N)C(N)=O)[C@@H](C)O)[C@@H](C)CC)C(C)C
B7: Compound 113 (peptide)
peptide: Pentanoyl-WNLVRIGTTR-NH2
SMILES: CCCCC(=O)N[C@@H](Cc1c[nH]c2ccccc12)C(=O)N[C@@H](CC(N)=O)C(=O)N[C@@H](CC(C)C)C(=O)N[C@H](C(=O)N[C@@H](CCCNC(=N)N)C(=O)N[C@H](C(=O)NCC(=O)N[C@H](C(=O)N[C@H](C(=O)N[C@@H](CCCNC(=N)N)C(N)=O)[C@@H](C)O)[C@@H](C)O)[C@@H](C)CC)C(C)C
B8: Compound 114 (peptide)
peptide: Pentanoyl-WNLVRIGTLR-NH2
SMILES: CCCCC(=O)N[C@@H](Cc1c[nH]c2ccccc12)C(=O)N[C@@H](CC(N)=O)C(=O)N[C@@H](CC(C)C)C(=O)N[C@H](C(=O)N[C@@H](CCCNC(=N)N)C(=O)N[C@H](C(=O)NCC(=O)N[C@H](C(=O)N[C@@H](CC(C)C)C(=O)N[C@@H](CCCNC(=N)N)C(N)=O)[C@@H](C)O)[C@@H](C)CC)C(C)C
B9: Compound 89 (peptide)
peptide: H-WCLWNLKRIGSQCWF-NH2
modifications: disulfide 2-13
SMILES: CC[C@H](C)[C@@H]1NC(=O)[C@H](CCCNC(=N)N)NC(=O)[C@H](CCCCN)NC(=O)[C@H](CC(C)C)NC(=O)[C@H](CC(N)=O)NC(=O)[C@H](Cc2c[nH]c3ccccc23)NC(=O)[C@H](CC(C)C)NC(=O)[C@@H](NC(=O)[C@@H](N)Cc2c[nH]c3ccccc23)CSSC[C@@H](C(=O)N[C@@H](Cc2c[nH]c3ccccc23)C(=O)N[C@@H](Cc2ccccc2)C(N)=O)NC(=O)[C@H](CCC(N)=O)NC(=O)[C@H](CO)NC(=O)CNC1=O
B10: Compound 87 (peptide)
peptide: Ac-GCLWNLKRIGSQCWF-NH2
modifications: disulfide 2-13
SMILES: CC[C@H](C)[C@@H]1NC(=O)[C@H](CCCNC(=N)N)NC(=O)[C@H](CCCCN)NC(=O)[C@H](CC(C)C)NC(=O)[C@H](CC(N)=O)NC(=O)[C@H](Cc2c[nH]c3ccccc23)NC(=O)[C@H](CC(C)C)NC(=O)[C@@H](NC(=O)CNC(C)=O)CSSC[C@@H](C(=O)N[C@@H](Cc2c[nH]c3ccccc23)C(=O)N[C@@H](Cc2ccccc2)C(N)=O)NC(=O)[C@H](CCC(N)=O)NC(=O)[C@H](CO)NC(=O)CNC1=O
B11: Compound 98 (peptide)
peptide: Fmoc-GSGCWNLKRIGSQGC-NH2
modifications: disulfide 4-15
SMILES: CC[C@H](C)[C@@H]1NC(=O)[C@H](CCCNC(=N)N)NC(=O)[C@H](CCCCN)NC(=O)[C@H](CC(C)C)NC(=O)[C@H](CC(N)=O)NC(=O)[C@H](Cc2c[nH]c3ccccc23)NC(=O)[C@@H](NC(=O)CNC(=O)[C@H](CO)NC(=O)CNC(=O)OCC2c3ccccc3-c3ccccc32)CSSC[C@@H](C(N)=O)NC(=O)CNC(=O)[C@H](CCC(N)=O)NC(=O)[C@H](CO)NC(=O)CNC1=O

How the values were obtained:
[1] = target: T1, His-tagged, full-length PCSK9 (human, UniProt A8T644 31-152; Q8NBP7 153-692); assay: TR-FRET competition; competitor EGF(A)-Fc on His-PCSK9
T1 construct: Target protein of the PCSK9/EGF(A) TR-FRET assay (10 nM); also called His-PCSK9; proprotein convertase subtilisin/kexin type 9
T1 sequence (A8T644 31-152 limits assumed, chain 1 of 2): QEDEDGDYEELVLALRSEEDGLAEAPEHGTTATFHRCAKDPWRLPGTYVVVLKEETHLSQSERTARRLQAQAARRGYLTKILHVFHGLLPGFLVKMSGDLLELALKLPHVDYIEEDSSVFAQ
T1 sequence (A8T644 other isoform, or with tags, fused parts or gaps limits assumed, chain 2 of 2): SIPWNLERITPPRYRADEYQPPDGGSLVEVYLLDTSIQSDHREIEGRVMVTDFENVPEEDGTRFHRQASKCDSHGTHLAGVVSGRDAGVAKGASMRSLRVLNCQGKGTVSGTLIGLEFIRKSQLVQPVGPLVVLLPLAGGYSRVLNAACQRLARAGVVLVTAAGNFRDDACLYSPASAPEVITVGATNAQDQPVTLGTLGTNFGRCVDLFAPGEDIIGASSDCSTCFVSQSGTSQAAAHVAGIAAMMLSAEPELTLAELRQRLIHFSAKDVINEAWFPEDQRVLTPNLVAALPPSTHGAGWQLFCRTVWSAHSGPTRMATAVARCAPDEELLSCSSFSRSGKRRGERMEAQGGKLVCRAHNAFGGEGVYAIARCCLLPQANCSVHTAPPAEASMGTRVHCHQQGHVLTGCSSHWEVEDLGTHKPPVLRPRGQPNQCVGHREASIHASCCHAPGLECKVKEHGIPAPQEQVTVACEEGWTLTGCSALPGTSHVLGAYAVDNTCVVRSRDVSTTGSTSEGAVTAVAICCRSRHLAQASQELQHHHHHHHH

[2] = target: T2, human PCSK9 (proprotein convertase subtilisin/kexin type 9), His-tagged, full-length (human, UniProt A8T644 31-152; Q8NBP7 153-692, limits assumed); assay: TR-FRET competition vs EGF(A)-Fc on His-PCSK9
T2 construct: The secreted protein is the prodomain plus the catalytic/Cys-rich part (N-terminus S153) after autocleavage; also called His-PCSK9; NARC-1
T2 sequence (A8T644 31-152 limits assumed, chain 1 of 2): as the sequence (A8T644 31-152 limits assumed, chain 1 of 2) above
T2 sequence (A8T644 other isoform, or with tags, fused parts or gaps limits assumed, chain 2 of 2): as the sequence (A8T644 other isoform, or with tags, fused parts or gaps limits assumed, chain 2 of 2) above

Row | Binder | IC50 [1] | IC50 [2] [µM]
1 | Ac-GSGCWNLKRIGSQGC-NH2 (disulfide 4-15 (inferred)) [Compound 22] | 42 µM and > 50 µM | –
2 | Ac-DLMPWNLVRIGL-NH2 [Compound 47] | – | > 50
3 | Ac-CWNLKRIGSQGC-NH2 (disulfide 1-12 (inferred)) [Compound 21] | > 50 µM | –
4 | B1 | 29.2 µM | –
5 | Ac-DLMPWNLVRIGLLR-NH2 [Compound 35] | – | > 50
6 | Ac-DLMPWNLVRAGLLR-NH2 [Compound 58] | – | > 50
7 | Ac-DLMPWNLARIGLLR-NH2 [Compound 60] | – | > 50
8 | Ac-DLMPWNLVAIGLLR-NH2 [Compound 59] | – | > 50
9 | Ac-DLMAWNLVRIGLLR-NH2 [Compound 42] | – | > 50
10 | Ac-DLMPWALVRIGLLR-NH2 [Compound 62] | – | > 50
11 | Ac-DAMPWNLVRIGLLR-NH2 [Compound 44] | – | > 50
12 | Ac-DLMPWNLVRIGLLA-NH2 [Compound 54] | – | > 50
13 | Ac-DLMPWNLVRIGALR-NH2 [Compound 56] | – | > 50
14 | Ac-DLMPWNAVRIGLLR-NH2 [Compound 61] | – | > 50
15 | Ac-DLMPANLVRIGLLR-NH2 [Compound 41] | – | > 50
16 | Ac-DLAPWNLVRIGLLR-NH2 [Compound 43] | – | > 50
17 | Ac-PWNLVRIGL-NH2 [Compound 119] | – | > 50

Row | Binder | IC50 [1] | IC50 [2] [µM]
18 | Ac-DLMPWNLVRIG-NH2 [Compound 48] | – | > 50
19 | B2 | 31.3 µM | –
20 | Ac-CWNLKRIGSQGCW-NH2 (disulfide 1-12 (inferred)) [Compound 39] | > 50 µM | –
21 | B3 | – | > 50
22 | B4 | – | > 50
23 | B5 | 17.9 µM | –
24 | B6 | – | > 50
25 | B7 | – | > 50
26 | B8 | – | > 50
27 | B9 | 6.9 µM | –
28 | B10 | > 50 µM | –
29 | B11 | 37.6 µM | –
30 | Ac-WNLVRIGL-NH2 [Compound 120] | – | > 50
31 | Ac-GSGCWNLKRIGSQGCW-NH2 (disulfide 4-15 (inferred)) [Compound 40] | 5.96 µM | –
32 | Ac-DLMPWNLVRIGLL-NH2 [Compound 46] | – | > 50
33 | Ac-DLMPWNLVRI-NH2 [Compound 49] | – | > 50
